Assay results from IntAct's records for PubMed 31515488.

B1: Antiviral innate immune response effector IFIT1 (Homo sapiens), P09914 (parent)
chain: MSTNGDDHQVKDSLEQLRCHFTWELSIDDDEMPDLENRVLDQIEFLDTKYSVGIHNLLAYVKHLKGQNEEALKSLKEAENLMQEEHDNQANVRSLVTWGNFAWMYYHMGRLAEAQTYLDKVENICKKLSNPFRYRMECPEIDCEEGWALLKCGGKNYERAKACFEKVLEVDPENPESSAGYAISAYRLDGFKLATKNHKPFSLLPLRQAVRLNPDNGYIKVLLALKLQDEGQEAEGEKYIEEALANMSSQTYVFRYAAKFYRRKGSVDKALELLKKALQETPTSVLLHHQIGLCYKAQMIQIKEATKGQPRGQNREKLDKMIRSAIFHFESAVEKKPTFEVAHLDLARMYIEAGNHRKAEENFQKLLCMKPVVEETMQDIHFHYGRFQEFQKKSDVNAIIHYLKAIKIEQASLTRDKSINSLKKLVLRKLRRKALDLESLSLLGFVYKLEGNMNEALEYYERALRLAADFENSVRQGP
partner: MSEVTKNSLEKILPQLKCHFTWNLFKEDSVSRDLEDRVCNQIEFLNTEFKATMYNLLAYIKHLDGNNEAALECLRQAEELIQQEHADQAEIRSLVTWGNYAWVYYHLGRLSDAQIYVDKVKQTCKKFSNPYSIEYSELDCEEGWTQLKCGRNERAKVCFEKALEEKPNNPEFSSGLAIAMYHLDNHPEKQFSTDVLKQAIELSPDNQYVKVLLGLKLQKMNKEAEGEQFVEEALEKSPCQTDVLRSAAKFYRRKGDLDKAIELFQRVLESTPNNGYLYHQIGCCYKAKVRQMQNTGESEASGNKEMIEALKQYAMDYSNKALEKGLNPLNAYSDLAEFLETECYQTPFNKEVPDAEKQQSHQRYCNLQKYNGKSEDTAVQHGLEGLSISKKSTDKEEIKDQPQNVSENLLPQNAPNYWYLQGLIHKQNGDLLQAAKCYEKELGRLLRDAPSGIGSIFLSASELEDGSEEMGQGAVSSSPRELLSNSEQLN
B2: Dynein axonemal light chain 4 (Homo sapiens), O96015 (parent)
chain: MGETEGKKDEADYKRLQTFPLVRHSDMPEEMRVETMELCVTACEKFSNNNESAAKMIKETMDKKFGSSWHVVIGEGFGFEITHEVKNLLYLYFGGTLAVCVWKCS
B3: G2/M phase-specific E3 ubiquitin-protein ligase (Homo sapiens), Q7L622 (parent)
chain: MNESKPGDSQNLACVFCRKHDDCPNKYGEKKTKEKWNLTVHYYCLLMSSGIWQRGKEEEGVYGFLIEDIRKEVNRASKLKCCVCKKNGASIGCVAPRCKRSYHFPCGLQRECIFQFTGNFASFCWDHRPVQIITSNNYRESLPCTICLEFIEPIPSYNILRSPCCKNAWFHRDCLQVQAINAGVFFFRCTICNNSDIFQKEMLRMGIHIPEKDASWELEENAYQELLQHYERCDVRRCRCKEGRDYNAPDSKWEIKRCQCCGSSGTHLACSSLRSWEQNWECLECRGIIYNSGEFQKAKKHVLPNSNNVGITDCLLEESSPKLPRQSPGSQSKDLLRQGSKFRRNVSTLLIELGFQIKKKTKRLYINKANIWNSALDAFRNRNFNPSYAIEVAYVIENDNFGSEHPGSKQEFLSLLMQHLENSSLFEGSLSKNLSLNSQALKENLYYEAGKMLAISLVHGGPSPGFFSKTLFNCLVYGPENTQPILDDVSDFDVAQIIIRINTATTVADLKSIINECYNYLELIGCLRLITTLSDKYMLVKDILGYHVIQRVHTPFESFKQGLKTLGVLEKIQAYPEAFCSILCHKPESLSAKILSELFTVHTLPDVKALGFWNSYLQAVEDGKSTTTMEDILIFATGCSSIPPAGFKPTPSIECLHVDFPVGNKCNNCLAIPITNTYKEFQENMDFTIRNTLRLEKEESSHYIGH
partner: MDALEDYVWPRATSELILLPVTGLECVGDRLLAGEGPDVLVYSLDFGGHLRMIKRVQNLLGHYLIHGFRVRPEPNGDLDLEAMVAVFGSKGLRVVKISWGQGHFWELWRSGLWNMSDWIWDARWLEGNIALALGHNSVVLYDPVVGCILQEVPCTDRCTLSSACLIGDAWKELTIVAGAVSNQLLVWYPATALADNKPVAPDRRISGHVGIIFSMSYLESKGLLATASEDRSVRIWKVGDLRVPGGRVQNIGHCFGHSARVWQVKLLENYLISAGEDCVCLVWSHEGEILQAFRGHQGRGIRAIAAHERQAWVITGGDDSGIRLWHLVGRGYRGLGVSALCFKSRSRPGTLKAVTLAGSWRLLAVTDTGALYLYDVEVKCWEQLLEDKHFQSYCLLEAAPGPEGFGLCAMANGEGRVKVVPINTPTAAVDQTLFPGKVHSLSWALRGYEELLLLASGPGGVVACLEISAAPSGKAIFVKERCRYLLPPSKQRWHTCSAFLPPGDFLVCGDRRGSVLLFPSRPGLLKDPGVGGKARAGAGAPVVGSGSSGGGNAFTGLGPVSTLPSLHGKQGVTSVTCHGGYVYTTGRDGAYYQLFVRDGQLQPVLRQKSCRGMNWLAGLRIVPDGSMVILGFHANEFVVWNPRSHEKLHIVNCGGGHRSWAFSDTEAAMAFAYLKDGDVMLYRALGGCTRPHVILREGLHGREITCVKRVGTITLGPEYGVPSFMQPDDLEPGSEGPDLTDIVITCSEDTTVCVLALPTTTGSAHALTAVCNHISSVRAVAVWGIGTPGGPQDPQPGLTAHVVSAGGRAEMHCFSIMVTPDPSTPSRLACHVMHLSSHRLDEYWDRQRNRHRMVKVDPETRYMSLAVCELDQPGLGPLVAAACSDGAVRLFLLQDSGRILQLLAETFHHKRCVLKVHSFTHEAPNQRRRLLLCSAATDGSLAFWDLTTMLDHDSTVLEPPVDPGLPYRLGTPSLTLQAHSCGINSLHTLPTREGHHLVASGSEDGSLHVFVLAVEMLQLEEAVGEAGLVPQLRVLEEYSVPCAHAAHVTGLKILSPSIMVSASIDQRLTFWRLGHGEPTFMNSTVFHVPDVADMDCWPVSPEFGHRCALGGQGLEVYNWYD
B4: Cyclic AMP-dependent transcription factor ATF-2 (Homo sapiens), P15336 (parent)
chain: MKFKLHVNSARQYKDLWNMSDDKPFLCTAPGCGQRFTNEDHLAVHKHKHEMTLKFGPARNDSVIVADQTPTPTRFLKNCEEVGLFNELASPFENEFKKASEDDIKKMPLDLSPLATPIIRSKIEEPSVVETTHQDSPLPHPESTTSDEKEVPLAQTAQPTSAIVRPASLQVPNVLLTSSDSSVIIQQAVPSPTSSTVITQAPSSNRPIVPVPGPFPLLLHLPNGQTMPVAIPASITSSNVHVPAAVPLVRPVTMVPSVPGIPGPSSPQPVQSEAKMRLKAALTQQHPPVTNGDTVKGHGSGLVRTQSEESRPQSLQQPATSTTETPASPAHTTPQTQSTSGRRRRAANEDPDEKRRKFLERNRAAASRCRQKRKVWVQSLEKKAEDLSSLNGQLQSEVTLLRNEVAQLKQLLLAHKDCPVTAMQKKSGYHTADKDDSSEDISVPSSPHTEAIQHSSVSTSNGVSSTSKAEAVATSVLTQMADQSTEPALSQIVMAPSSQSQPSGS
B5: DNA topoisomerase 3-beta-1 (Homo sapiens), O95985 (parent)
chain: MKTVLMVAEKPSLAQSIAKILSRGSLSSHKGLNGACSVHEYTGTFAGQPVRFKMTSVCGHVMTLDFLGKYNKWDKVDPAELFSQAPTEKKEANPKLNMVKFLQVEGRGCDYIVLWLDCDKEGENICFEVLDAVLPVMNKAHGGEKTVFRARFSSITDTDICNAMACLGEPDHNEALSVDARQELDLRIGCAFTRFQTKYFQGKYGDLDSSLISFGPCQTPTLGFCVERHDKIQSFKPETYWVLQAKVNTDKDRSLLLDWDRVRVFDREIAQMFLNMTKLEKEAQVEATSRKEKAKQRPLALNTVEMLRVASSSLGMGPQHAMQTAERLYTQGYISYPRTETTHYPENFDLKGSLRQQANHPYWADTVKRLLAEGINRPRKGHDAGDHPPITPMKSATEAELGGDAWRLYEYITRHFIATVSHDCKYLQSTISFRIGPELFTCSGKTVLSPGFTEVMPWQSVPLEESLPTCQRGDAFPVGEVKMLEKQTNPPDYLTEAELITLMEKHGIGTDASIPVHINNICQRNYVTVESGRRLKPTNLGIVLVHGYYKIDAELVLPTIRSAVEKQLNLIAQGKADYRQVLGHTLDVFKRKFHYFVDSIAGMDELMEVSFSPLAATGKPLSRCGKCHRFMKYIQAKPSRLHCSHCDETYTLPQNGTIKLYKELRCPLDDFELVLWSSGSRGKSYPLCPYCYNHPPFRDMKKGMGCNECTHPSCQHSLSMLGIGQCVECESGVLVLDPTSGPKWKVACNKCNVVAHCFENAHRVRVSADTCSVCEAALLDVDFNKAKSPLPGDETQHMGCVFCDPVFQELVELKHAASCHPMHRGGPGRRQGRGRGRARRPPGKPNPRRPKDKMSALAAYFV
partner: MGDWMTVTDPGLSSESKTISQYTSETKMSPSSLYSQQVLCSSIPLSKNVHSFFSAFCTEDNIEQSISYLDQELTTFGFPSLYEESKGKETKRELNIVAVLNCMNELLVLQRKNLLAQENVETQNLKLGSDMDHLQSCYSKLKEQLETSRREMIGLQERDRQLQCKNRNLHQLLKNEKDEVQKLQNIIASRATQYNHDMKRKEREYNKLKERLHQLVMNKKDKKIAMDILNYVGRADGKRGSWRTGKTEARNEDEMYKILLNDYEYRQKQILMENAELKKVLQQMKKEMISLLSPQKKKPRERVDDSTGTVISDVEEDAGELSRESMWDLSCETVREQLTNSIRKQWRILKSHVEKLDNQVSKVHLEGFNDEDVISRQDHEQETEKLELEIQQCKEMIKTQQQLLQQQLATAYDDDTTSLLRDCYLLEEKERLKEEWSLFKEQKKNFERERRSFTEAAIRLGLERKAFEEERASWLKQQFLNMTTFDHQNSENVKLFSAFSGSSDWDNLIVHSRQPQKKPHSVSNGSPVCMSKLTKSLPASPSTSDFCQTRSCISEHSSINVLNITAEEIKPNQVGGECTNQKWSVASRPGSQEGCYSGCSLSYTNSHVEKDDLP
B6: 2'-5'-oligoadenylate synthase 2 (Homo sapiens), P29728 (parent)
chain: MGNGESQLSSVPAQKLGWFIQEYLKPYEECQTLIDEMVNTICDVLQEPEQFPLVQGVAIGGSYGRKTVLRGNSDGTLVLFFSDLKQFQDQKRSQRDILDKTGDKLKFCLFTKWLKNNFEIQKSLDGFTIQVFTKNQRISFEVLAAFNALSLNDNPSPWIYRELKRSLDKTNASPGEFAVCFTELQQKFFDNRPGKLKDLILLIKHWHQQCQKKIKDLPSLSPYALELLTVYAWEQGCRKDNFDIAEGVRTVLELIKCQEKLCIYWMVNYNFEDETIRNILLHQLQSARPVILDPVDPTNNVSGDKICWQWLKKEAQTWLTSPNLDNELPAPSWNVLPAPLFTTPGHLLDKFIKEFLQPNKCFLEQIDSAVNIIRTFLKENCFRQSTAKIQIVRGGSTAKGTALKTGSDADLVVFHNSLKSYTSQKNERHKIVKEIHEQLKAFWREKEEELEVSFEPPKWKAPRVLSFSLKSKVLNESVSFDVLPAFNALGQLSSGSTPSPEVYAGLIDLYKSSDLPGGEFSTCFTVLQRNFIRSRPTKLKDLIRLVKHWYKECERKLKPKGSLPPKYALELLTIYAWEQGSGVPDFDTAEGFRTVLELVTQYQQLCIFWKVNYNFEDETVRKFLLSQLQKTRPVILDPAEPTGDVGGGDRWCWHLLAKEAKEWLSSPCFKDGTGNPIPPWKVPTMQTPGSCGARIHPIVNEMFSSRSHRILNNNSKRNF

Variants of: B1
Conditions: with ifit3_human IFIT3, O14879

Variant	effect of a mutation on the interaction
M453T	with no effect

Variants of: B2
Conditions: with dyl2_human DYNLL2, Q96FJ2
dyl2_human DYNLL2, Q96FJ2, sequence (Q96FJ2 whole entry): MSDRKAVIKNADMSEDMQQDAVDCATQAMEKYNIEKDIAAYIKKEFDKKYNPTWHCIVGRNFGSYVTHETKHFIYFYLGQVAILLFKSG

Variant	effect of a mutation on the interaction
R32C	disrupting interaction strength

Variants of: B3
Conditions: with wdr6_human WDR6, Q9NNW5

Variant	effect of a mutation on the interaction
P328L	with no effect

Variants of: B4
Conditions: with jun_human JUN

Variant	effect of a mutation on the interaction
S456L	with no effect

Variants of: B5
Conditions: with adip_human SSX2IP

Variant	effect of a mutation on the interaction
R267W	disrupting interaction strength

Variants of: B6
Conditions: with clk3_human CLK3, P49761
clk3_human CLK3, P49761, sequence (P49761 whole entry, looked up): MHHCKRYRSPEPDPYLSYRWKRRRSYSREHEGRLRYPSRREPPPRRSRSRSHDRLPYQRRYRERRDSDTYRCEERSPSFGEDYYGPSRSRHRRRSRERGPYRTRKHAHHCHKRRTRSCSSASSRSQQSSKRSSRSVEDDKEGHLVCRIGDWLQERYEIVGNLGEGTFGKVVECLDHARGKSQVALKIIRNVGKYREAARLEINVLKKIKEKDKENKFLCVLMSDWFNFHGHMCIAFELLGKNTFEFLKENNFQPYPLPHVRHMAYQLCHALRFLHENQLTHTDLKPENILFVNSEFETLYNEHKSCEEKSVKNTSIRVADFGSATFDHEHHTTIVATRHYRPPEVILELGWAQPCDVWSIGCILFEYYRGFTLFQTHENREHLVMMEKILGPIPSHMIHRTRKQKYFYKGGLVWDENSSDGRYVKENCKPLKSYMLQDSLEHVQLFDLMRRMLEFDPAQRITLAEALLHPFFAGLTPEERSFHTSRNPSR

Variant	effect of a mutation on the interaction
R535Q	disrupting interaction strength
